Assay results as given in patent publication US20090221476A1.

Target: tubulin purified on a phosphocellulose column (mouse)
Test: cell-based or functional assay

Sequence of tubulin purified on a phosphocellulose column (mouse) (P68369 whole entry, chain 1 of 2): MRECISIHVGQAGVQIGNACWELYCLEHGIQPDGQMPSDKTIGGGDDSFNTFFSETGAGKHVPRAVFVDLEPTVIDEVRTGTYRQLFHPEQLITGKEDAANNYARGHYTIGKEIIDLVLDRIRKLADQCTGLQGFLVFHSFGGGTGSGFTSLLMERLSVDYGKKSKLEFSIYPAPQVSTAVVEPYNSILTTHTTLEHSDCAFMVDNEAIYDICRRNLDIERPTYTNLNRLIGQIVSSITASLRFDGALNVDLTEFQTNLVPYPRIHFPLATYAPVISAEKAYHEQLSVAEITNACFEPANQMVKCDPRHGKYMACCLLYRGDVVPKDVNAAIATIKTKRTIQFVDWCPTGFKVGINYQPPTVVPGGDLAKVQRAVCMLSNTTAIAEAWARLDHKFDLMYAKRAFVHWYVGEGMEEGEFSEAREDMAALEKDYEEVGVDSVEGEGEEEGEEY
Sequence of tubulin purified on a phosphocellulose column (mouse) (Q9ERD7 whole entry, chain 2 of 2, further chain): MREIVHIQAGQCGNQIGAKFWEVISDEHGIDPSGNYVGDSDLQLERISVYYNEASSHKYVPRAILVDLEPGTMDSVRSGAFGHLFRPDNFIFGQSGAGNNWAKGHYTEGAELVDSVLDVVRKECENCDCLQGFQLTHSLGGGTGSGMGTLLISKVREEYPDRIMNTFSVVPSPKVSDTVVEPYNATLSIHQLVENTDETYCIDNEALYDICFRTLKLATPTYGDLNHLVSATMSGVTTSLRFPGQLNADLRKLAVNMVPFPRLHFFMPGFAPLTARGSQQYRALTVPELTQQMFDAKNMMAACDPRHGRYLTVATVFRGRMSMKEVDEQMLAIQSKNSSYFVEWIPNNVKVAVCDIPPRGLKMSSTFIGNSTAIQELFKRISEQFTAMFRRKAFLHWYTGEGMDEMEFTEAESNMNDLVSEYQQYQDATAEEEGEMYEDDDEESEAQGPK

inhibition of tubulin polymerization (% inhibition at 100 µM) | T98G cells in phase G1 after 48 hours with 10 µM peptide (FACS; 39% in untreated cultures) (% of cells in G1) | Substance
30 |  | Neurofilament Light subunit-Tubulin Binding Site 1 (NFL-TBS1) (peptide)
30 |  | Neurofilament Medium subunit-Tubulin Binding Site (NFM-TBS) (peptide)
30 |  | Neurofilament high subunit-Tubulin Binding Site (NFH-TBS) (peptide)
100 | 61 | Neurofilament Light subunit-Tubulin Binding Site 2 (NFL-TBS2) (peptide)
